Source: patent publication US20220242962A1 (APTEVO RESEARCH AND DEVELOPMENT, published 2022)
Values belong to the binder of their own block, whether it stands above or below them.

Legend:
Full-length Cyno OX40 = molecular target: T1, Full-length Cyno OX40 (cynomolgus monkey, UniProt P43489 29-277 (human entry)); experiment: flow cytometry on CHOK1SV cells transfected with cynomolgus OX40, goat anti-human Fc secondary antibody, MFI (Mean)
T1 construct: on CHO-K1SV cells; also called OXF004; cynomolgus OX40
T1 chain: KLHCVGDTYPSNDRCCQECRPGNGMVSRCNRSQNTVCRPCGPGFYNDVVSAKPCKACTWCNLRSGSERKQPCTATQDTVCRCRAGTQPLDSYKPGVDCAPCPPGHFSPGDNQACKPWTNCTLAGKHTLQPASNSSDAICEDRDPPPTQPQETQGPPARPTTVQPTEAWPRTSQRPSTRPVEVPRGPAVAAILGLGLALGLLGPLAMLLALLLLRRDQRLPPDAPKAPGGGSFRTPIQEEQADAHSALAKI
Description: (§1) Serial dilutions of ADAPTIR™ constructs were incubated with cells transfected with human or cynomolgus ECD and subsequently labelled with a fluorescently-conjugated goat-α-human Fc secondary antibody. […] (See Example 16.)

Full-length Cyno 4-1BB = molecular target: T2, Full-length Cyno 4-1BB (cynomolgus monkey, UniProt Q07011 24-255 (human entry)); experiment: flow cytometry on Jurkat cells transfected with cynomolgus 4-1BB, goat anti-human Fc secondary antibody, MFI (Mean)
T2 construct: on Jurkat or CHO cells; also called FOB006; cynomolgus 4-1BB
T2 chain: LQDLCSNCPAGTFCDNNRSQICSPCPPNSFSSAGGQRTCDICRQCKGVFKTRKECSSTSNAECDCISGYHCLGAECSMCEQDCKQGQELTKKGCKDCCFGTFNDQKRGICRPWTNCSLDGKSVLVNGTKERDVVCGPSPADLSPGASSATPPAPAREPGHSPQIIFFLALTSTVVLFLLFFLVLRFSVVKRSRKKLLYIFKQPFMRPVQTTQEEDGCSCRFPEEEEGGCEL
Description: as §1

Full-length Human OX40 [1] = molecular target: T3, Full-length Human OX40 (human, UniProt P43489 29-277); experiment: flow cytometry, CHO cells expressing human OX40
T3 construct: also called OXF001; human OX40/CHO
T3 sequence: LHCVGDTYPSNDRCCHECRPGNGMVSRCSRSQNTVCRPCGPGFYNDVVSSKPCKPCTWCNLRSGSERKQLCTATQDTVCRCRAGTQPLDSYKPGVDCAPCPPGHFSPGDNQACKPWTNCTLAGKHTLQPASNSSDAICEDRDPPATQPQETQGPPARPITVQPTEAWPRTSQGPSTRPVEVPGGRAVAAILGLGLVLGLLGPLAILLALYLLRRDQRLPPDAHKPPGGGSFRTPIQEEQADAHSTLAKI

Full-length Human 4-1BB [2] = molecular target: T4, Full-length Human 4-1BB (human, UniProt Q07011 24-255); experiment: flow cytometry, Jurkat cells expressing human 4-1BB
T4 construct: also called FOB005; CD137
Description: as §1

Human 4-1BB ECD-AFH = molecular target: T5, Human 4-1BB ECD-AFH (human); experiment: SPR (T200), construct captured, monomeric ECD as analyte
T5 construct: entry includes the tags; also called FOB003; HUMAN CD137 ECD-AVI-FLAG-HIS
T5 sequence (chain, as listed by the source limits assumed): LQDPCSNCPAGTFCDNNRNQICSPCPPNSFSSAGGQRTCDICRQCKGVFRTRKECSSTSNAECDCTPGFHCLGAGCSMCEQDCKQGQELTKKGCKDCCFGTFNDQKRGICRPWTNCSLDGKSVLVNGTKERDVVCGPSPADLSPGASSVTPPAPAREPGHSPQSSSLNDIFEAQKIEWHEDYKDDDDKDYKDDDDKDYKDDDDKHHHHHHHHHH
Description: (§2) Mouse anti-human IgG (GE, BR-1008-39) at 25 μg/ml in 10 mM sodium acetate pH 5.0 was immobilized at a density of ˜10,000 response units (RU) onto each flow cell of a CM5 research-grade sensor chip (GE) by standard amine coupling chemistry. Each binding protein at approximately 100 nM in HBS-EP+ with 0.2% BSA buffer was captured in a flow cell with the immobilized anti-human IgG at a flow rate of 10 μL/min for 20 seconds, leaving one flow cell surface unmodified as the reference. Using a single-cycle kinetics mode, five different concentrations of ECD were sequentially injected through each flow cell at 30 μL/min for 300 seconds followed by a 600 second dissociation period. Regeneration was achieved by injection of 3 M MgCl₂ at a flow rate of 30 μL/min for 30 seconds followed by HBS-EP+ with 0.2% BSA buffer stabilization for 1 min.
(§3) Sensorgrams obtained from kinetic SPR measurements were analyzed by the double subtraction method. The signal from the reference flow cell was subtracted from the analyte binding response obtained from flow cells with immobilized or captured ligands. Buffer reference responses were then averaged from multiple injections. The averaged buffer reference responses were then subtracted from analyte binding responses, and the final double-referenced data were analyzed with Biacore T200 Evaluation software (2.0, GE), globally fitting data to derive kinetic parameters. All sensorgrams were fitted using a simple one-to-one binding model.

Human OX40 ECD-AFH = molecular target: T6, Human OX40 ECD-AFH (human); experiment: as above
T6 construct: ECD'; entry includes the C-terminal tags; also called OXF003; Human OX40 ECD-avi-flag-his
T6 chain: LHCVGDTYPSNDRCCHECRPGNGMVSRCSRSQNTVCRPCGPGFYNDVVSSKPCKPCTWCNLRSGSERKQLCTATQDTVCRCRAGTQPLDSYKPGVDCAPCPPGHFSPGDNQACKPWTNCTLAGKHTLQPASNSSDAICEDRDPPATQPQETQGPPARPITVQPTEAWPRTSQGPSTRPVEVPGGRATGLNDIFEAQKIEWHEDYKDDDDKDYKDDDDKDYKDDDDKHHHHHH
Description: as §2, §3

Full-length Human 4-1BB [3] = molecular target: T4, Full-length Human 4-1BB; experiment: cell-based or functional assay
Full-length Human OX40 [4] = molecular target: T3, Full-length Human OX40; experiment: cell-based or functional assay

EC50 (read off the curve) (Full-length Cyno OX40): ~2 nM | binding result (Full-length Cyno 4-1BB): binds | EC50 (Full-length Human OX40 [1]): 1.4 nM | Max MFI (Full-length Human OX40 [1]): 9820 MFI | EC50 (Full-length Human 4-1BB [2]): 0.53 nM | Max MFI (Full-length Human 4-1BB [2]): 4120 MFI | Kd (Human 4-1BB ECD-AFH): 37 nM | koff (Human 4-1BB ECD-AFH): 0.0038 s⁻¹ | kon (Human 4-1BB ECD-AFH): 100000 M⁻¹ s⁻¹ | Kd (Human OX40 ECD-AFH): 0.3 nM | koff (Human OX40 ECD-AFH): 0.00012 s⁻¹ | kon (Human OX40 ECD-AFH): 450000 M⁻¹ s⁻¹ | 4-1BB Reporter Assay EC50 (Full-length Human 4-1BB [3]): 0.025 nM | 4-1BB Reporter Assay Max induction (Full-length Human 4-1BB [3]): 6.26e+06 | OX40 Reporter Assay EC50 (Full-length Human OX40 [4]): 0.023 nM | OX40 Reporter Assay Max induction (Full-length Human OX40 [4]): 470000
B1: FXX01079 (bispecific antibody)
chain: SYVLTQPPSVSVAPGQTARITCGGNNIGSKSVNWFQQKPGQAPVLVVYDDSGRPSGIPERFSGSTSGNTATLTISRVEAGDEADYYCQVWDSSSDHVVFGGGTKLTVLGGGGSGGGGSGGGGSGGGGSQVQLVESGGGVVQPGRSLRLSCAASGFTLSYYGMHWVRQAPGKGLEWVAVISHDGSDKYYADSVKGRFTISRDNSKNTLYLQMNSLRAEDTAVYYCSNDQFDPWGQGTLVTVEPKSSDKTHTCPPCPAPPAAAPSVFLFPPKPKDTLMISRTPEVTCVVVDVSHEDPEVKFNWYVDGVEVHNAKTKPREEQYNSTYRVVSVLTVLHQDWLNGKEYKCAVSNKALPAPIEKTISKAKGQPREPQVYTLPPSRDELTKNQVSLTCLVKGFYPSDIAVEWESNGQPENNYKTTPPVLDSDGSFFLYSKLTVDKSRWQQGNVFSCSVMHEALHNHYTQKSLSLSPGGGGSPSEVQLVQSGAEVKKPGASVKVSCKASGYTFTSYWMNWVRQAPGQGLEWMGNIYPSGGSTNYAQKFQGRVTMTVDTSTSTVYMELSSLRSEDTAVYYCASFSDGYYAYAMDYWGQGTLVTVSSGGGGSGGGGSGGGGSGGGGSEIVMTQSPATLSLSPGERATLSCRASQSVSSYLNWYQQKPGQAPRLLIYYASRRHTGIPARFSGSGSGTDFTLTISSLQPEDFAVYYCQQGYNLPYTFGQGTKVEIKR
notes: ADAPTIR scFv-Fc-scFv, anti-OX40 N-terminal, anti-4-1BB C-terminal; also called FX01079

EC50 (read off the curve) (Full-length Cyno OX40): ~2 nM | EC50 (read off the curve) (Full-length Cyno 4-1BB): ~0.6 nM | EC50 (Full-length Human OX40 [1]): 0.35 nM | Max MFI (Full-length Human OX40 [1]): 10500 MFI | EC50 (Full-length Human 4-1BB [2]): 0.32 nM | Max MFI (Full-length Human 4-1BB [2]): 4940 MFI | Kd (Human 4-1BB ECD-AFH): 7 nM | koff (Human 4-1BB ECD-AFH): 0.002 s⁻¹ | kon (Human 4-1BB ECD-AFH): 280000 M⁻¹ s⁻¹ | Kd (Human OX40 ECD-AFH): 0.4 nM | koff (Human OX40 ECD-AFH): 0.00016 s⁻¹ | kon (Human OX40 ECD-AFH): 400000 M⁻¹ s⁻¹ | 4-1BB Reporter Assay EC50 (Full-length Human 4-1BB [3]): 0.014 nM | 4-1BB Reporter Assay Max induction (Full-length Human 4-1BB [3]): 6.58e+06 | OX40 Reporter Assay EC50 (Full-length Human OX40 [4]): 0.01 nM | OX40 Reporter Assay Max induction (Full-length Human OX40 [4]): 1.97e+06
B2: FXX01047 (bispecific antibody)
chain: EVQLVQSGAEVKKPGASVKVSCKASGYTFTSYWMNWVRQAPGQGLEWMGNIYPGSSTTNYAQKFQGRVTMTVDTSTSTVYMELSSLRSEDTAVYYCASFSDGYYAYAMDYWGQGTLVTVSSGGGGSGGGGSGGGGSGGGGSEIVMTQSPATLSLSPGERATLSCRASQDISNYLNWYQQKPGQAVRLLIYYTSRLHSGIPARFSGSGSGTDYTLTISSLQPEDFAVYFCQQGYTLPYTFGQGTKVEIKEPKSSDKTHTCPPCPAPPAAAPSVFLFPPKPKDTLMISRTPEVTCVVVDVSHEDPEVKFNWYVDGVEVHNAKTKPREEQYNSTYRVVSVLTVLHQDWLNGKEYKCAVSNKALPAPIEKTISKAKGQPREPQVYTLPPSRDELTKNQVSLTCLVKGFYPSDIAVEWESNGQPENNYKTTPPVLDSDGSFFLYSKLTVDKSRWQQGNVFSCSVMHEALHNHYTQKSLSLSPGGGGSPSSYVLTQPPSVSVAPGQTARITCGGNNIGSKSVNWFQQKPGQAPVLVVYDDSGRPSGIPERFSGSTSGNTATLTISRVEAGDEADYYCQVWDSSSDHVVFGGGTKLTVLGGGGSGGGGSGGGGSGGGGSQVQLVESGGGVVQPGRSLRLSCAASGFTLSYYGMHWVRQAPGKGLEWVAAISHDGSDKYYADSVKGRFTISRDNSKNTLYLQMNSLRAEDTAVYYCSNDQFDPWGQGTLVTVSSR
notes: ADAPTIR scFv-Fc-scFv, anti-4-1BB N-terminal, anti-OX40 C-terminal; also called FX01047

EC50 (read off the curve) (Full-length Cyno OX40): ~2 nM | EC50 (read off the curve) (Full-length Cyno 4-1BB): ~1 nM | EC50 (Full-length Human OX40 [1]): 0.4 nM | Max MFI (Full-length Human OX40 [1]): 10400 MFI | EC50 (Full-length Human 4-1BB [2]): 0.27 nM | Max MFI (Full-length Human 4-1BB [2]): 4750 MFI | Kd (Human 4-1BB ECD-AFH): 21 nM | koff (Human 4-1BB ECD-AFH): 0.0018 s⁻¹ | kon (Human 4-1BB ECD-AFH): 84000 M⁻¹ s⁻¹ | Kd (Human OX40 ECD-AFH): 0.3 nM | koff (Human OX40 ECD-AFH): 0.00013 s⁻¹ | kon (Human OX40 ECD-AFH): 440000 M⁻¹ s⁻¹ | 4-1BB Reporter Assay EC50 (Full-length Human 4-1BB [3]): 0.013 nM | 4-1BB Reporter Assay Max induction (Full-length Human 4-1BB [3]): 6.82e+06 | OX40 Reporter Assay EC50 (Full-length Human OX40 [4]): 0.013 nM | OX40 Reporter Assay Max induction (Full-length Human OX40 [4]): 2.03e+06
B3: FXX01055 (bispecific antibody)
chain: SYVLTQPPSVSVAPGQTARITCGGNNIGSKSVNWFQQKPGQAPVLVVYDDSGRPSGIPERFSGSTSGNTATLTISRVEAGDEADYYCQVWDSSSDHVVFGGGTKLTVLGGGGSGGGGSGGGGSGGGGSQVQLVESGGGVVQPGRSLRLSCAASGFTLSYYGMHWVRQAPGKGLEWVAVISHDGSDKYYADSVKGRFTISRDNSKNTLYLQMNSLRAEDTAVYYCSNDQFDPWGQGTLVTVEPKSSDKTHTCPPCPAPPAAAPSVFLFPPKPKDTLMISRTPEVTCVVVDVSHEDPEVKFNWYVDGVEVHNAKTKPREEQYNSTYRVVSVLTVLHQDWLNGKEYKCAVSNKALPAPIEKTISKAKGQPREPQVYTLPPSRDELTKNQVSLTCLVKGFYPSDIAVEWESNGQPENNYKTTPPVLDSDGSFFLYSKLTVDKSRWQQGNVFSCSVMHEALHNHYTQKSLSLSPGGGGSPSEVQLVQSGAEVKKPGASVKVSCKASGYTFTSYWMNWVRQAPGQGLEWMGNIYPGSSTTNYAQKFQGRVTMTVDTSTSTVYMELSSLRSEDTAVYYCASFSDGYYAYAMDYWGQGTLVTVSSGGGGSGGGGSGGGGSGGGGSEIVMTQSPATLSLSPGERATLSCRASQDISNYLNWYQQKPGQAVRLLIYYTSRLHSGIPARFSGSGSGTDYTLTISSLQPEDFAVYFCQQGYTLPYTFGQGTKVEIKR
notes: ADAPTIR scFv-Fc-scFv, anti-OX40 N-terminal, anti-4-1BB C-terminal; also called FX01055
